The experiment addresses Vitronectin purified from human plasma (human) (UniProt P04004). The experiment is described as follows: ELISA: biotinylated suPAR without uPA1-48 on vitronectin-coated wells.

The source of these data is patent US20040265797A1.

Sequence of Vitronectin purified from human plasma (human) (P04004 20-478): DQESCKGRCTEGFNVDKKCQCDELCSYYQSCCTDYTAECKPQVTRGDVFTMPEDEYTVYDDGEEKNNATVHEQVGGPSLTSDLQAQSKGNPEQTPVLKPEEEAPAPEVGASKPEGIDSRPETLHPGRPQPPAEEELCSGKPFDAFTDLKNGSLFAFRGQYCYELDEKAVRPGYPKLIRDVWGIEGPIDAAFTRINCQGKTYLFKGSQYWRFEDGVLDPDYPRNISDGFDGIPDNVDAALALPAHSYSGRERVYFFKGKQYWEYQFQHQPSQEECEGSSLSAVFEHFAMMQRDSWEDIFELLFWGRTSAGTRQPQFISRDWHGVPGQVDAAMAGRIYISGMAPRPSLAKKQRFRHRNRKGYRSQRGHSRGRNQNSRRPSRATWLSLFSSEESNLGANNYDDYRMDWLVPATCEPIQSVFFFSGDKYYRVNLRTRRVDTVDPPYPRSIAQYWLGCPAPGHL

For the substance “Soluble recombinant human urokinase receptor (suPAR) (from UniProt Q03405 23-299)”, the mean absorbance at 450 nm is 0.03 OD450.
